Consider two molecules from patent US20240042051A1, “MCL-1 INHIBITOR ANTIBODY-DRUG CONJUGATES AND METHODS OF USE” (Novartis AG, priority 2020, published 2024).

Assay [1] deals with hCD48EC:mouse-Ig (non-mutated human CD48-mouse IgG1 fusion protein) (human) (UniProt P09326). The assay is described as follows: ELISA, HEK293T culture supernatant (1:10) with the CD48-mouse Ig construct, antibody at 25, 250 and 500 ng/mL, detection goat anti-mouse IgG (H+L) HRP, Mean OD450-570.
Another assay addresses 2249 (Homo sapiens) (UniProt P09326). The assay is described as above.
In assay [2] the target is Cynomolgus Monkey CD48 (recombinant, CynoCD48 aa29-217) (cynomolgus monkey (Macaca fascicularis)). The assay can be described thus: SPR Biacore T200, antibody captured on protein A chip, CD48 as analyte, 25 °C, 1:1 model.

Sequence of hCD48EC:mouse-Ig (non-mutated human CD48-mouse IgG1 fusion protein) (human) (P09326 27-220, change not shown): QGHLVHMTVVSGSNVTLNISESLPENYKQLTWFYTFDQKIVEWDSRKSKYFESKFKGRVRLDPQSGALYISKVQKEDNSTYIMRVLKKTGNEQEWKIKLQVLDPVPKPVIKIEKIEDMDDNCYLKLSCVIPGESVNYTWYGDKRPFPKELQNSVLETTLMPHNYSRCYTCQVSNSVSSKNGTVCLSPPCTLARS
Sequence of 2249 (Homo sapiens) (P09326 27-220): as the sequence (P09326 27-220, change not shown) above

B1: humanized CD48A (antibody, V domains shown)
VH: QVQLVQSGSELKKPGASVKVSCKASGYTFTDFGMNWVRQAPGQGLEWMGWINTFTGEPSYGNVFKGRFVFSLDTSVSTAYLQISSLKAEDTAVYYCARRHGNGNVFDSWGQGTLVTVSS
VL: EIVLTQSPDFQSVTPKEKVTITCRASQSIGSNIHWYQQKPDQSPKLLIKYTSESISGVPSRFSGSGSGTDFTLTINSLEAEDAATYYCQQSNSWPLTFGGGTKVEIKR
For B1, the EC50 (read off the curve) in assay [1] is 20 ng/mL; with 2249 (Homo sapiens), 30 ng/mL.

B2: NY938 (antibody, human IgG1, kappa, V domains shown)
VH: QVQLVQSGAEVKKPGASVKVSCKASGYTFTEYTMHWVRQAPGQGLEWMGGINPDTGDTSYNQKFTGRATLTVDKSTSTAYMELSSLRSEDTAVYYCARAQFWTTPRFAYWGQGTLVTVSS
VL: DIQMTQSPSSLSASVGDRVTITCKASQDVGTAVAWYQQKPGKVPKLLIYWASTRHTGVPSRFSGSGSGTDFTLTISSLQPEDVATYYCQQYSTYPITFGQGTKLEIKR
For B2, in assay [2], the Kd came out at 1.5 nM, the koff stood at 0.00037 s⁻¹ and the kon turned out to be 250000 M⁻¹ s⁻¹.
